In US12099068B2, “Biomarkers for graft-versus-host disease” (Incyte Corporation, priority 2018, dated 2024):

B1: CDIC (protein, UniProt P29017 18-333, looked up)
T-cell surface glycoprotein …: NADASQEHVSFHVIQIFSFVNQSWARGQGSGWLDELQTHGWDSESGTIIFLHNWSKGNFSNEELSDLELLFRFYLFGLTREIQDHASQDYSKYPFEVQVKAGCELHSGKSPEGFFQVAFNGLDLLSFQNTTWVPSPGCGSLAQSVCHLLNHQYEGVTETVYNLIRSTCPRFLLGLLDAGKMYVHRQVRPEAWLSSRPSLGSGQLLLVCHASGFYPKPVWVTWMRNEQEQLGTKHGDILPNADGTWYLQVILEVASEEPAGLSCRVRHSSLGGQDIILYWGHHFSMNWIALVVIVPLVILIVLVLWFKKHCSYQDIL
B2: COCH (protein, UniProt O43405 25-550, looked up)
Cochlin: EGAAPIAITCFTRGLDIRKEKADVLCPGGCPLEEFSVYGNIVYASVSSICGAAVHRGVISNSGGPVRVYSLPGRENYSSVDANGIQSQMLSRWSASFTVTKGKSSTQEATGQAVSTAHPPTGKRLKKTPEKKTGNKDCKADIAFLIDGSFNIGQRRFNLQKNFVGKVALMLGIGTEGPHVGLVQASEHPKIEFYLKNFTSAKDVLFAIKEVGFRGGNSNTGKALKHTAQKFFTVDAGVRKGIPKVVVVFIDGWPSDDIEEAGIVAREFGVNVFIVSVAKPIPEELGMVQDVTFVDKAVCRNNGFFSYHMPNWFGTTKYVKPLVQKLCTHEQMMCSKTCYNSVNIAFLIDGSSSVGDSNFRLMLEFVSNIAKTFEISDIGAKIAAVQFTYDQRTEFSFTDYSTKENVLAVIRNIRYMSGGTATGDAISFTVRNVFGPIRESPNKNFLVIVTDGQSYDDVQGPAAAAHDAGITIFSVGVAWAPLDDLKDMASKPKESHAFFTREFTGLEPIVSDVIRGICRDFLESQQ
B3: PGLYRP1 (protein, UniProt O75594 22-196, looked up)
Peptidoglycan recognition …: QETEDPACCSPIVPRNEWKALASECAQHLSLPLRYVVVSHTAGSSCNTPASCQQQARNVQHYHMKTLGWCDVGYNFLIGEDGLVYEGRGWNFTGAHSGHLWNPMSIGISFMGNYMDRVPTPQAIRAAQGLLACGVAQGALRSNYVLKGHRDVQRTLSPGNQLYHLIQNWPHYRSP
B4: CLEC10A (protein, UniProt Q8IUN9 1-316, looked up)
C-type lectin domain family …: MTRTYENFQYLENKVKVQGFKNGPLPLQSLLQRLCSGPCHLLLSLGLGLLLLVIICVVGFQNSKFQRDLVTLRTDFSNFTSNTVAEIQALTSQGSSLEETIASLKAEVEGFKQERQAGVSELQEHTTQKAHLGHCPHCPSVCVPVHSEMLLRVQQLVQDLKKLTCQVATLNNNASTEGTCCPVNWVEHQDSCYWFSHSGMSWAEAEKYCQLKNAHLVVINSREEQNFVQKYLGSAYTWMGLSDPEGAWKWVDGTDYATGFQNWKPGQPDDWQGHGLGGGEDCAHFHPDGRWNDDVCQRPYHWVCEAGLGQTSQESH
B5: LAMP3 (protein, UniProt Q9UQV4 28-416, looked up)
Lysosome-associated membrane …: KAFPETRDYSQPTAAATVQDIKKPVQQPAKQAPHQTLAARFMDGHITFQTAATVKIPTTTPATTKNTATTSPITYTLVTTQATPNNSHTAPPVTEVTVGPSLAPYSLPPTITPPAHTTGTSSSTVSHTTGNTTQPSNQTTLPATLSIALHKSTTGQKPVQPTHAPGTTAAAHNTTRTAAPASTVPGPTLAPQPSSVKTGIYQVLNGSRLCIKAEMGIQLIVQDKESVFSPRRYFNIDPNATQASGNCGTRKSNLLLNFQGGFVNLTFTKDEESYYISEVGAYLTVSDPETIYQGIKHAVVMFQTAVGHSFKCVSEQSLQLSAHLQVKTTDVQLQAFDFEDDHFGNVDECSSDYTIVLPVIGAIVVGLCLMGMGVYKIRLRCQSSGYQRI
B6: IGFBP-2 (protein, UniProt P18065 36-325, looked up)
Insulin-like growth …: AEVLFRCPPCTPERLAACGPPPVAPPAAVAAVAGGARMPCAELVREPGCGCCSVCARLEGEACGVYTPRCGQGLRCYPHPGSELPLQALVMGEGTCEKRRDAEYGASPEQVADNGDDHSEGGLVENHVDSTMNMLGGGGSAGRKPLKSGMKELAVFREKVTEQHRQMGKGGKHHLGLEEPKKLRPPPARTPCQQELDQVLERISTMRLPDERGPLEHLYSLHIPNCDKHGLYNLKQCKMSLNGQRGECWCVNPNTGKLIQGAPTIRGDPECHLFYNEQQEARGVHTQRMQ
B7: PILRB (protein, UniProt Q9UKJ0 20-227, looked up)
Paired immunoglobulin-like …: QPGGSTGSGPSYLYGVTQPKHLSASMGGSVEIPFSFYYPWELAIVPNVRISWRRGHFHGQSFYSTRPPSIHKDYVNRLFLNWTEGQESGFLRISNLRKEDQSVYFCRVELDTRRSGRQQLQSIKGTKLTITQAVTTTTTWRPSSTTTIAGLRVTESKGHSESWHLSLDTAIRVALAVAVLKTVILGLLCLLLLWWRRRKGSRAPSSDF
B8: IL-6RA (protein, UniProt P08887 20-468, looked up)
Interleukin-6 receptor …: LAPRRCPAQEVARGVLTSLPGDSVTLTCPGVEPEDNATVHWVLRKPAAGSHPSRWAGMGRRLLLRSVQLHDSGNYSCYRAGRPAGTVHLLVDVPPEEPQLSCFRKSPLSNVVCEWGPRSTPSLTTKAVLLVRKFQNSPAEDFQEPCQYSQESQKFSCQLAVPEGDSSFYIVSMCVASSVGSKFSKTQTFQGCGILQPDPPANITVTAVARNPRWLSVTWQDPHSWNSSFYRLRFELRYRAERSKTFTTWMVKDLQHHCVIHDAWSGLRHVVQLRAQEEFGQGEWSEWSPEAMGTPWTESRSPPAENEVSTPMQALTTNKDDDNILFRDSANATSLPVQDSSSVPLPTFLVAGGSLAFGTLLCIAIVLRFKKTWKLRALKEGKTSMHPPYSLGQLVPERPRPTPVLVPLISPPVSPSSLGSDNTSSHNRPDARDPRSPYDISNTDYFFPR
B9: ATG4A (protein, UniProt Q8WYN0 1-398, looked up)
Cysteine protease ATG4A: MESVLSKYEDQITIFTDYLEEYPDTDELVWILGKQHLLKTEKSKLLSDISARLWFTYRRKFSPIGGTGPSSDAGWGCMLRCGQMMLAQALICRHLGRDWSWEKQKEQPKEYQRILQCFLDRKDCCYSIHQMAQMGVGEGKSIGEWFGPNTVAQVLKKLALFDEWNSLAVYVSMDNTVVIEDIKKMCRVLPLSADTAGDRPPDSLTASNQSKGTSAYCSAWKPLLLIVPLRLGINQINPVYVDAFKECFKMPQSLGALGGKPNNAYYFIGFLGDELIFLDPHTTQTFVDTEENGTVNDQTFHCLQSPQRMNILNLDPSVALGFFCKEEKDFDNWCSLVQKEILKENLRMFELVQKHPSHWPPFVPPAKPEVTTTGAEFIDSTEQLEEFDLEEDFEILSV
B10: GSAP (protein, UniProt A4D1B5 1-854, looked up)
Gamma-secretase-activating …: MALRLVADFDLGKDVLPWLRAQRAVSEASGAGSGGADVLENDYESLHVLNVERNGNIIYTYKDDKGNVVFGLYDCQTRQNELLYTFEKDLQVFSCSVNSERTLLAASLVQSTKEGKRNELQPGSKCLTLLVEIHPVNNVKVLKAVDSYIWVQFLYPHIESHPLPENHLLLISEEKYIEQFRIHVAQEDGNRVVIKNSGHLPRDRIAEDFVWAQWDMSEQRLYYIDLKKSRSILKCIQFYADESYNLMFEVPLDISLSNSGFKLVNFGCDYHQYRDKFSKHLTLCVFTNHTGSLCVCYSPKCASWGQITYSVFYIHKGHSKTFTTSLENVGSHMTKGITFLNLDYYVAVYLPGHFFHLLNVQHPDLICHNLFLTGNNEMIDMLPHCPLQSLSGSLVLDCCSGKLYRALLSQSSLLQLLQNTCLDCEKMAALHCALYCGQGAQFLEAQIIQWISENVSACHSFDLIQEFIIASSYWSVYSETSNMDKLLPHSSVLTWNTEIPGITLVTEDIALPLMKVLSFKGYWEKLNSNLEYVKYAKPHFHYNNSVVRREWHNLISEEKTGKRRSAAYVRNILDNAVKVISNLEARNLGPRLTPLLQEEDSHQRLLMGLMVSELKDHFLRHLQGVEKKKIEQMVLDYISKLLDLICHIVETNWRKHNLHSWVLHFNSRGSAAEFAVFHIMTRILEATNSLFLPLPPGFHTLHTILGVQCLPLHNLLHCIDSGVLLLTETAVIRLMKDLDNTEKNEKLKFSIIVRLPPLIGQKICRLWDHPMSSNIISRNHVTRLLQNYKKQPRNSMINKSSFSVEFLPLNYFIEILTDIESSNQALYPFEGHDNVDAEFVEEAALKHTAMLLGL
B11: Gal-4 (protein, UniProt P56470 1-323, looked up)
Galectin-4: MAYVPAPGYQPTYNPTLPYYQPIPGGLNVGMSVYIQGVASEHMKRFFVNFVVGQDPGSDVAFHFNPRFDGWDKVVFNTLQGGKWGSEERKRSMPFKKGAAFELVFIVLAEHYKVVVNGNPFYEYGHRLPLQMVTHLQVDGDLQLQSINFIGGQPLRPQGPPMMPPYPGPGHCHQQLNSLPTMEGPPTFNPPVPYFGRLQGGLTARRTIIIKGYVPPTGKSFAINFKVGSSGDIALHINPRMGNGTVVRNSLLNGSWGSEEKKITHNPFGPGQFFDLSIRCGLDRFKVYANGQHLFDFAHRLSAFQRVDTLEIQGDVTLSYVQI
B12: CLEC6A (protein, UniProt Q6EIG7 1-209, looked up)
C-type lectin domain family 6 …: MMQEQQPQSTEKRGWLSLRLWSVAGISIALLSACFIVSCVVTYHFTYGETGKRLSELHSYHSSLTCFSEGTKVPAWGCCPASWKSFGSSCYFISSEEKVWSKSEQNCVEMGAHLVVFNTEAEQNFIVQQLNESFSYFLGLSDPQGNNNWQWIDKTPYEKNVRFWHLGEPNHSAEQCASIVFWKPTGWGWNDVICETRRNSICEMNKIYL
B13: SPON2 (protein, UniProt Q9BUD6 27-331, looked up)
Spondin-2: QPLGGESICSARALAKYSITFTGKWSQTAFPKQYPLFRPPAQWSSLLGAAHSSDYSMWRKNQYVSNGLRDFAERGEAWALMKEIEAAGEALQSVHAVFSAPAVPSGTGQTSAELEVQRRHSLVSFVVRIVPSPDWFVGVDSLDLCDGDRWREQAALDLYPYDAGTDSGFTFSSPNFATIPQDTVTEITSSSPSHPANSFYYPRLKALPPIARVTLVRLRQSPRAFIPPAPVLPSRDNEIVDSASVPETPLDCEVSLWSSWGLCGGHCGRLGTKSRTRYVRVQPANNGSPCPELEEEAECVPDNCV

Tested on: plasma proteins
Test: Plasma proteins modulated between baseline and day 28 in responders (CR, VGPR, PR; n = 19), Example 6 (Table 13)
Assay type: in vivo, human
Conditions: plasma protein (OLINK NPX); responders (CR, VGPR, PR; n = 19); itacitinib 200 mg or 300 mg QD with corticosteroids; day 28 vs baseline
Outline: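 Longitudinal comparison, day 28 versus baseline, with steroid-naive (N=10) and steroid-refractory (N=18) patients combined. Proteins measured by OLINK proximity extension, log2 normalized protein expression. Differences tested by t tests, ANOVA, Pearson correlation, P<0.05 significant.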

First: B1
Second: B2
The “Fold Change, Decreased Expression from Baseline to Day 28” value (from here on “Fold Change, Decreased Expression”) of the first is lower: −1.5651 for the first, −1.22 for the second.

First: B3
Second: B4
The “Fold Change, Decreased Expression” value of the first is lower: −1.6181 for the first, −1.274 for the second.

First: B5
Second: B6
The “Fold Change, Decreased Expression” value of the first is lower: −1.7705 for the first, −1.2058 for the second.

Going from B7 to B8, the “Fold Change, Decreased Expression” value rises from −1.3019 to −1.1901.

Compared with B9, B10 is lower in “Fold Change, Decreased Expression” value: −1.3651 for the first, −1.4153 for the second.

In the case of B12, the “Fold Change, Decreased Expression” value is reported as −1.3248.

Going from B11 to B13, the “Fold Change, Increased Expression from Baseline to Day 28” value falls from 1.4274 to 1.095.
